B1: mCherry-KANK1 wild type (human full-length KANK1) [human] / GFP-talin1-cBAK [mouse] (parent complex)
chain 1: MAHTTKVNGSASGKAGDILSGDQDKEQKDPYFVETPYGYQLDLDFLKYVDDIQKGNTIKRLNIQKRRKPSVPCPEPRTTSGQQGIWTSTESLSSSNSDDNKQCPNFLIARSQVTSTPISKPPPPLETSLPFLTIPENRQLPPPSPQLPKHNLHVTKTLMETRRRLEQERATMQMTPGEFRRPRLASFGGMGTTSSLPSFVGSGNHNPAKHQLQNGYQGNGDYGSYAPAAPTTSSMGSSIRHSPLSSGISTPVTNVSPMHLQHIREQMAIALKRLKELEEQVRTIPVLQVKISVLQEEKRQLVSQLKNQRAASQINVCGVRKRSYSAGNASQLEQLSRARRSGGELYIDYEEEEMETVEQSTQRIKEFRQLTADMQALEQKIQDSSCEASSELRENGECRSVAVGAEENMNDIVVYHRGSRSCKDAAVGTLVEMRNCGVSVTEAMLGVMTEADKEIELQQQTIESLKEKIYRLEVQLRETTHDREMTKLKQELQAAGSRKKVDKATMAQPLVFSKVVEAVVQTRDQMVGSHMDLVDTCVGTSVETNSVGISCQPECKNKVVGPELPMNWWIVKERVEMHDRCAGRSVEMCDKSVSVEVSVCETGSNTEESVNDLTLLKTNLNLKEVRSIGCGDCSVDVTVCSPKECASRGVNTEAVSQVEAAVMAVPRTADQDTSTDLEQVHQFTNTETATLIESCTNTCLSTLDKQTSTQTVETRTVAVGEGRVKDINSSTKTRSIGVGTLLSGHSGFDRPSAVKTKESGVGQININDNYLVGLKMRTIACGPPQLTVGLTASRRSVGVGDDPVGESLENPQPQAPLGMMTGLDHYIERIQKLLAEQQTLLAENYSELAEAFGEPHSQMGSLNSQLISTLSSINSVMKSASTEELRNPDFQKTSLGKITGNYLGYTCKCGGLQSGSPLSSQTSQPEQEVGTSEGKPISSLDAFPTQEGTLSPVNLTDDQIAAGLYACTNNESTLKSIMKKKDGNKDSNGAKKNLQFVGINGGYETTSSDDSSSDESSSSESDDECDVIEYPLEEEEEEEDEDTRGMAEGHHAVNIEGLKSARVEDEMQVQECEPEKVEIRERYELSEKMLSACNLLKNTINDPKALTSKDMRFCLNTLQHEWFRVSSQKSAIPAMVGDYIAAFEAISPDVLRYVINLADGNGNTALHYSVSHSNFEIVKLLLDADVCNVDHQNKAGYTPIMLAALAAVEAEKDMRIVEELFGCGDVNAKASQAGQTALMLAVSHGRIDMVKGLLACGADVNIQDDEGSTALMCASEHGHVEIVKLLLAQPGCNGHLEDNDGSTALSIALEAGHKDIAVLLYAHVNFAKAQSPGTPRLGRKTSPGPTHRGSFD
chain 2: MVALSLKISIGNVVKTMQFEPSTMVYDACRMIRERIPEALAGPPNDFGLFLSDDDPKKGIWLEAGKALDYYMLRNGDTMEYRKKQRPLKIRMLDGTVKTIMVDDSKTVTDMLMTICARIGITNHDEYSLVRELMEEKKDEGTGTLRKDKTLLRDEKKMEKLKQKLHTDDELNWLDHGRTLREQGVEEHETLLLRRKFFYSDQNVDSRDPVQLNLLYVQARDDILNGSHPVSFDKACEFAGFQCQIQFGPHNEQKHKAGFLDLKDFLPKEYVKQKGERKIFQAHKNCGQMSEIEAKVRYVKLARSLKTYGVSFFLVKEKMKGKNKLVPRLLGITKECVMRVDEKTKEVIQEWSLTNIKRWAASPKSFTLDFGDYQDGYYSVQTTEGEQIAQLIAGYIDIILKKKKSKDHFGLEGDEESTMLEDSVSPKKSTVLQQQYNRVGKVEHGSVALPAIMRSGASGPENFQVGSMPPAQQQITSGQMHRGHMPPLTSAQQALTGTINSSMQAVQAAQATLDDFETLPPLGQDAASKAWRKNKMDESKHEIHSQVDAITAGTASVVNLTAGDPAETDYTAVGCAVTTISSNLTEMSRGVKLLAALLEDEGGNGRPLLQAAKGLAGAVSELLRSAQPASAEPRQNLLQAAGNVGQASGELLQQIGESDTDPHFQDVLMQLAKAVASAAAALVLKAKSVAQRTEDSGLQTQVIAAATQCALSTSQLVACTKVVAPTISSPVCQEQLVEAGRLVAKAVEGCVSASQAATEDGQLLRGVGAAATAVTQALNELLQHVKAHATGAGPAGRYDQATDTILTVTENIFSSMGDAGEMVRQARILAQATSDLVNAIKADAEGESDLENSRKLLSAAKILADATAKMVEAAKGAAAHPDSEEQQQRLREAAEGLRMATNAAAQNAIKKKLVQRLEHAAKQAAASATQTIAAAQHAASAPKASAGPQPLLVQSCKAVAEQIPLLVQGVRGSQAQPDSPSAQLALIAASQSFLQPGGKMVAAAKASVPTIQDQASAMQLSQCAKNLGTALAELRTAAQKAQEACGPLEMDSALSVVQNLEKDLQEIKAAARDGKLKPLPGETMEKCTQDLGNSTKAVSSAIAKLLGEIAQGNENYAGIAARDVAGGLRSLAQAARGVAALTSDPAVQAIVLDTASDVLDKASSLIEEAKKASGHPGDPESQQRLAQVAKAVTQALNRCVSCLPGQRDVDNALRAVGDASKRLLSDSLPPSTGTFQEAQSRLNEAAAGLNQAATELVQASRGTPQDLARASGRFGQDFSTFLEAGVEMAGQAPSQEDRAQVVSNLKGISMSSSKLLLAAKALSTDPASPNLKSQLAAAARAVTDSINQLITMCTQQAPGQKECDNALRQLETVRELLENPVQPINDMSYFGCLDSVMENSKVLGEAMTGISQNAKNGNLPEFGDAIATASKALCGFTEAAAQAAYLVGVSDPNSQAGQQGLVEPTQFARANQAIQMACQSLGEPGCTQAQVLSAATIVAKHTSALCNSCRLASARTANPTAKRQFVQSAKEVANSTANLVKTIKALDGDFTEENRAQCRAATAPLLEAVDNLSAFASNPEFSSVPAQISPEGRAAMEPIVISAKTMLESAGGLIQTARALAVNPRDPPRWSVLAGHSRTVSDSIKKLITSMRDKAPGQLECETAIAALNSCLRDLDQASLAAVSQQLAPREGISQEALHTQMLTAVQEISHLIEPLASAARAEASQLGHKVSQMAQYFEPLTLAAVGAASKTLSHPQQMALLDQTKTLAESALQLLYTAKEAGGNPKQAAHTQEALEEAVQMMTEAVEDLTTTLNEAASAAGVVGGMVDSITQAINQLDEGPMGDPEGSFVDYQTTMVRTAKAIAVTVQEMVTKSNTSPEELGPLANQLTSDYGRLASQAKPAAVAAENEEIGAHIKHRVQELGHGCSALVTKAGALQCSPSDVYTKKELIECARRVSEKVSHVLAALQAGNRGTQACITAASAVSGIIADLDTTIMFATAGTLNREGAETFADHREGILKTAKVLVEDTKVLVQNAAGSQEKLAQAAQSSVATITRLADVVKLGAASLGAEDPETQVVLINAVKDVAKALGDLISATKAAAGKVGDDPAVWQLKNSAKVMVTNVTSLLKTVKAVEDEATKGTRALEATTEHIRQELAVFCSPEPPAKTSTPEDFIRMTKGITMATAKAVAAGNSCRQEDVIATANLSRRAIADMLRACKEAAFHPEVAPDVRLRALHYGRECANGYLELLDHVLLTLQKPNPDLKQQLTGHSKRVAGSVTELIQAAEAMKGTEWVDPEDPTVIAENELLGAAAAIEAAAKKLEQLKPRAKPKEADESLNFEEQILEAAKSIAAATSALVKAASAAQRELVAQGKVGAIPANALDDGQWSQGLISAARMVAAATNNLCEAANAAVQGHASQEKLISSAKQVAASTAQLLVACKVKADQDSEAMKRLQAAGNAVKRASDNLVKAAQKAAAFEDQENETVVVKEKMVGGIAQIIAAQEEMLRKERELEEARKKLAQIRQQQYKFLPSELRDEH

Variants of: B1
Experiment: mitochondria pulldown (MTS assay), Western blot quantification; HEK293T cells; triplicate experiments; read off a plot

Variant | percent of parent [%]
chain 1 V49E | ~2
